According to EP2848696A1, “Caspase-1 imaging probes” (Sanofi-Aventis Deutschland GmbH, priority 2013, dated 2015):

How the values were obtained:
Experiment in all cases: Kinetic characterization (Km and kcat/Km of probe hydrolysis)
Assay type in all cases: biochemical
Settings in all cases: other: caspase-1 added to increasing probe concentrations; initial velocities; nonlinear regression
[1] = substrate: CCN(CC)c1ccc2cc(C(=O)NNC(=O)[C@H](CC(=O)O)NC(=O)[C@@H]3CCCN4C(=O)CC[C@H](NC(=O)c5cc6cc(Br)c(O)cc6oc5=O)C(=O)N34)c(=O)oc2c1
Protocol: (§1) Km and kcat/Km values were determined using standard methods (Kindermann et al., 2010; Rozman Pungercar et al., 2003). Caspase-1 was added to increasing concentrations of the probe and initial velocities of probe hydrolysis were calculated from the slopes of the lines of the fluorescence increase. Km and kcat (Vmax) values were then determined by nonlinear regression analysis using the Prism program.

[2] = substrate: CCN(CC)c1ccc2cc(C(=O)NNC(=O)[C@H](CC(=O)O)NC(=O)[C@@H]3CCCN4C(=O)CC[C@H](NC(=O)c5cc6ccc(O)cc6oc5=O)C(=O)N34)c(=O)oc2c1
Protocol: as §1

[3] = substrate: CCN(CC)c1ccc2cc(C(=O)NNC(=O)[C@H](CC(=O)O)NC(=O)[C@@H]3CCCN4C(=O)CC[C@H](NC(=O)c5cc6ccc(OC)cc6oc5=O)C(=O)N34)c(=O)oc2c1
Protocol: as §1

B1: Caspase-1 (Homo sapiens) (protein)
chain 1: NPAMPTSSGSEGNVKLCSLEEAQRIWKQKSAEIYPIMDKSSRTRLALIICNEEFDSIPRRTGAEVDITGMTMLLQNLGYSVDVKKNLTASDMTTELEAFAHRPEHKTSDSTFLVFMSHGIREGICGKKHSEQVPDILQLNAIFNMLNTKNCPSLKDKPKVIIIQACRGDSPGVVWFKD
chain 2: AIKKAHIEKDFIAFCSSTPDNVSWRHPTMGSVFIGRLIEHMQEYACSCDVEEIFRKVRFSFEQPDGRAQMPTTERVTLTRCFYLFPGH
Q: For B1, which Km [1] is on record?
A: Its Km is 5.9 µM µM.

Q: What about the Km [2] of the same protein?
A: The Km was 6.5 µM µM.

Q: And the Km [3]?
A: Its Km is 4.2 µM µM.
